Test results: US20260053892A1, “Induction and Expansion of Regulatory T Cells” (Board of Regents of the University of Nebraska, priority 2022, published 2026)

What was measured:
[1] = 3 or 6 μg/kg/day, cited from earlier work
Tregs = experiment: Treg profiles by flow cytometry in blood, lymph nodes and spleen of treated mice; format: in vivo, C57BL/6 male mice
Experimental: C57BL/6 male mice (5-6 weeks old) were purchased from Jackson Laboratories (Bar Harbor, ME). […] Following a period of acclimation, mice were injected intraperitoneally (i.p.) with daily GM-CSF (Group 4) (Days 0-4). […] On Day 10, the mice were sacrificed, blood was collected, and spleen and lymph nodes were harvested.
Following treatment, whole blood, lymph nodes and spleens were collected to determine T-cell profiles via flow cytometric analysis. Peripheral blood, lymph nodes, and splenocytes were fluorescently labeled using antibodies against cell surface antigens including CD3, CD4, CD25, CD8, CD19, CD127, ICOS, GITR, CD39, CD62L, CD44, GITR, and CTLA-4, and for the intracellular markers FoxP3 and STAT5. Whole blood, lymph nodes, and splenocytes were labeled with PerCP Cyanine 5.5-anti-CD3 (eBioscience/Thermo Fisher Scientific, Waltham, MA), APC-anti-CD19 (eBiosciences), PE-anti-CD25 (eBiosciences), PE-cyanine7-anti-CD4 (eBiosciences), PerCP-eFluor710-anti-CD39 (eBiosciences), Alexa Fluor™ 488-anti-CD278 (ICOS) (Biolegend, San Diego, CA), FITC-anti-CD127 (Biolegend), FITC-anti-CD44, Alexa Fluor™ 488-anti-CTLA-4, Alexa Flour™ 700-anti-GITR, FITC-anti-CD8, and PerCP Cyanine 5.5-anti-CD62L. Intracellular staining was performed following permeabilization for 45 minutes at 4° C. Cells were labeled with APC-anti-FoxP3 (eBioscience) or anti-STAT5-Pacific Blue. Samples were analyzed with an LSRII flow cytometer and FACSDiva™ Software (BD Biosciences, San Diego, CA).
All values are expressed as mean±SEM using ANOVA (mean±SEM, n=3). *=p≤0.05; **=p≤0.01; *** p≤0.001. Data were analyzed using GraphPad Prism 9.3.1 software (La Jolla, CA).

[2] = in vivo; cited from earlier work

sargramostim: human recombinant GM-CSF (sargramostim, Leukine®)
Treg numbers [1]: increased
Unified Parkinson's Disease Rating Scale (UPDRS) scores [1]: modestly improved
Safety and tolerability ([1]; low doses): safe and well-tolerated

B1: granulocyte-macrophage colony-stimulating factor (protein, UniProt P01587 18-141, looked up)
Granulocyte-macrophage …: APTRSPITVTRPWKHVEAIKEALNLLDDMPVTLNEEVEVVSNEFSFKKLTCVQTRLKIFEQGLRGNFTKLKGALNMTASYYQTYCPPTPETDCETQVTTYADFIDSLKTFLTDIPFECKKPGQK
notes: granulocyte-macrophage colony-stimulating factor, immunomodulatory growth factor; 0.1 mg/kg i.p. in mice
CD4+CD25+FOXP3+ Tregs (Tregs; blood, FIG. 4): did not induce
CD25+CD127− Tregs (Tregs; blood, FIG. 5): did not induce
CD25+ICOS+ Tregs (Tregs; blood, FIG. 7): did not significantly induce
CD4+CD25+ Tregs (Tregs; lymph nodes, FIG. 2): only a mild increase
CD25+GITR+ Tregs (Tregs; lymph nodes, FIG. 9): did not induce
CD4+CD25+FOXP3+ Tregs (Tregs; spleen, FIG. 3): did not induce
CD25+CD127− Tregs (Tregs; spleen, FIG. 6): did not induce
CD25+ICOS+ Tregs (Tregs; spleen, FIG. 8): did not significantly induce
CD25+CD39+ Tregs (Tregs; spleen, FIG. 10): did not induce
CD25+CD62L− Tregs (Tregs; spleen, FIG. 11): did not significantly induce
half-life [2]: six
